Results published in paper PMC3478282, “Probing the Putative Active Site of YjdL: An Unusual Proton-Coupled Oligopeptide Transporter from E. coli” (PLoS ONE, 2012).

Tests used:
[1] = biological target: YjdL from E. coli, wild type (E. coli) (UniProt P39276)
YjdL-Asp392Ser (E. coli) = YjdL-Asp392Ser (E. coli) (UniProt P39276)
YjdL Tyr113Phe (E. coli) = YjdL Tyr113Phe (E. coli) (UniProt P39276)
YjdL Tyr21Phe (E. coli) = YjdL Tyr21Phe (E. coli) (UniProt P39276)
YjdL Tyr25Phe (E. coli) = YjdL Tyr25Phe (E. coli) (UniProt P39276)
YjdL Tyr58Phe (E. coli) = YjdL Tyr58Phe (E. coli) (UniProt P39276)
[2] = biological target: YjdL from E. coli, wild type (E. coli) (UniProt P39276); remark: listed apart in the source
YjdL-Ala281Phe (E. coli) = YjdL-Ala281Phe (E. coli) (UniProt P39276)
YjdL-Trp278Phe (E. coli) = YjdL-Trp278Phe (E. coli) (UniProt P39276)

Substance | β-Ala-Lys(AMCA) uptake (0.5 mM) left with 50 mM competitor, E. coli cells, pH 6.5 [1] [%] | β-Ala-Lys(AMCA) uptake (0.5 mM) left with 50 mM competitor, E. coli cells, pH 6.5 (YjdL-Asp392Ser (E. coli)) [%] | IC50 of inhibition of β-Ala-Lys(AMCA) uptake into E. coli cells (0.2 mM substrate, 5 min, pH 6.5) (YjdL Tyr113Phe (E. coli)) [mM] | IC50 of inhibition of β-Ala-Lys(AMCA) uptake into E. coli cells (0.2 mM substrate, 5 min, pH 6.5) (YjdL Tyr21Phe (E. coli)) [mM] | IC50 of inhibition of β-Ala-Lys(AMCA) uptake into E. coli cells (0.2 mM substrate, 5 min, pH 6.5) (YjdL Tyr25Phe (E. coli)) [mM] | IC50 of inhibition of β-Ala-Lys(AMCA) uptake into E. coli cells (0.5 mM substrate, 15 min, pH 6.5) (YjdL Tyr58Phe (E. coli)) [mM] | IC50 of inhibition of β-Ala-Lys(AMCA) uptake into E. coli cells (0.2 mM substrate, 5 min, pH 6.5) [2] [mM] | IC50 of inhibition of β-Ala-Lys(AMCA) uptake into E. coli cells (0.5 mM substrate, 15 min, pH 6.5) [2] [mM] | IC50 of inhibition of β-Ala-Lys(AMCA) uptake into E. coli cells (0.2 mM substrate, 5 min, pH 6.5) (YjdL-Ala281Phe (E. coli)) [mM] | IC50 of inhibition of β-Ala-Lys(AMCA) uptake into E. coli cells (0.2 mM substrate, 5 min, pH 6.5) (YjdL-Trp278Phe (E. coli)) [mM]
Ala-Ala-Ala (peptide) | 55 | 34 |  |  |  |  |  |  |  | 
Ala-Lys (peptide) | < 10 |  | 0.34 | 0.45 | 0.4 | > 50 | 0.28 | 0.89 | 0.26 | 0.38
